According to publication PMC10053502:

Target: S. pneumoniae DNA topoisomerase I (TopoI), purified (S. pneumoniae)

## histidine-tagged StaR (H6-StaR), product of spr0929 of Streptococcus pneumoniae R6 (natural protein)
  relaxation of pBR322 by TopoI in vitro (37 °C, 1 h) with increasing StaR concentrations; percent of topoisomers (including OC/RC forms) at the highest StaR concentration (CCC form fell to 2.5%): 97.5%
